Measured values: article PMC3594189, “Cellular Catabolism of the Iron-Regulatory Peptide Hormone Hepcidin” (PLoS ONE, 2013)
Each block holds one molecule with its values, some of them ahead of it. No end group written: not given here.

Experiments:
[1] = target: T1, ECR293 cells expressing Fpn-GFP (Mus musculus, UniProt Q9JHI9); assay type: cell-based; conditions: for effect of lysosomal inhibitor on degradation of both hepcidin and ferroportin: chloroquine 100 µM or bafilomycin 100 nM for 20 h after 4 h TR-Hep loading, flow cytometry
T1 construct: expressed in transfected cells; host or cells: ECR293 (ECR-Fpn) cells, ponasterone-inducible
T1 sequence (Q9JHI9 1-570): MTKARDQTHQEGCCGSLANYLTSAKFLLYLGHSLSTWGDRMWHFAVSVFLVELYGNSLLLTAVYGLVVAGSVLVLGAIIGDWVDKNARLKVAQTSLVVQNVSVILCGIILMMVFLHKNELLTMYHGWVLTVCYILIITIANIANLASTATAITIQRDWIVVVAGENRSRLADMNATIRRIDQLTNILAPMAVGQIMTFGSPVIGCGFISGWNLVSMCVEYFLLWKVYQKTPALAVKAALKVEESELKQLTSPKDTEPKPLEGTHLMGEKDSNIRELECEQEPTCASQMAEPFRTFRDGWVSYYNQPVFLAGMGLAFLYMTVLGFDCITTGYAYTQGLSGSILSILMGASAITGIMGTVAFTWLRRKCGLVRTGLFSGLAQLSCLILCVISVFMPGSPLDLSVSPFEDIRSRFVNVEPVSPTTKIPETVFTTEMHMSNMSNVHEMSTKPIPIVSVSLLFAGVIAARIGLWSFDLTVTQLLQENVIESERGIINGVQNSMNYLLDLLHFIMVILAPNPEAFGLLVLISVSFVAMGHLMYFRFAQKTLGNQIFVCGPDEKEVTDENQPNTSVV
Experimental: ECR-Fpn cells were plated on poly-D-lysine-coated plates in the presence of 20 µM FAC, with or without 10 µM ponasterone. After 24 h, ponasterone was washed off, and cells were loaded with 1 µg/ml TR-Hep for 4 h. After 4 h, cells were washed with PBS, fresh media was added and cells were treated with or without lysosomal inhibitors chloroquine (100 µM) and bafilomycin (100 nM). Twenty hours after the addition of inhibitors, cells were trypsinized and resuspended at 1×10^6 cells/ml, and the intensity of red and green fluorescence was analyzed by flow cytometry at UCLA Jonsson Comprehensive Cancer Center and Center for AIDS Research Flow Cytometry Core Facility (supported by NIH awards CA-16 042 and AI-28 697, the UCLA AIDS institute, and the UCLA School of Medicine). Flow cytometry was performed on FACSVantage SE sorting flow cytometer with digital electronics (Becton Dickinson, San Jose, CA) and analyzed with FACSDiva software (Becton Dickinson). Cells not induced with ponasterone were used to establish a gate to exclude background fluorescence. Loss of cellular Fpn-GFP was quantified as % of green fluorescence in induced cells not treated with hepcidin. Degradation of cellular TR-Hep was measured as % of red fluorescence in induced cells treated with TR-Hep for 4 h.

[2] = target: T1, ECR293 cells expressing Fpn-GFP; assay type: cell-based
Experimental: ECR-Fpn cells were plated on poly-D-lysine coated plates in the presence of 20 µM FAC, with or without 10 µM ponasterone, and incubated at 37°C. After 24 h, cells were washed with PBS and 1 ml of serum free media was added. The cells were treated with 5×10^5 cpm of ^125I–hepcidin for 2 h (loading period) at 37°C. After 2 h the cells were washed 3 times with DMEM/10% fetal bovine serum to remove unbound ^125I-hepcidin and 1 ml serum-free media with 20 µM FAC was added to all wells. Cells were incubated at 37°C for 5 min, 4, 8 and 24 h after loading. To prevent lysosomal acidification and proteolysis, 100 nM bafilomycin was added to assigned wells for 24 h. The supernatant was collected, its radioactivity quantified by a gamma counter, and an aliquot subjected to HPLC analysis. The cells were washed once and centrifuged for 2 min at 12,000xg through a silicone oil layer (Nyosil M25, Nye, Fairhaven, MA). The radioactivity in cell pellets was determined by gamma counting (Beckman, Fullerton, CA).
Aliquots of the supernatants were analyzed by reversed-phase high-performance liquid chromatography (RP-HPLC) on Vydac C18 column (218TP54; Waters). Fractions were eluted over 30 minutes with an acetonitrile gradient (1 fraction per minute) and their radioactivity determined by gamma counting.

[3] = target: T2, Fpn-GFP expressing ECR293 cells (ferroportin) (Mus musculus, UniProt Q9JHI9); experiment: Temperature and pH dependent 125I-hepcidin binding/internalization assay; assay type: cell-based
T2 construct: expressed in transfected cells; host or cells: ECR293 (ECR-Fpn) cells, ponasterone-inducible
T2 sequence (Q9JHI9 1-570): T1 sequence (Q9JHI9 1-570)
Experimental: ^125I-hepcidin (10^6 cpm, specific activity ∼10^7 cpm/µg) was added to ECR-Fpn cells plated on poly-D-lysine coated plates in the presence of 20 µM FAC, with or without 10 µM ponasterone. Cells were incubated with radiolabeled hepcidin at different temperatures (0, 15, 23 and 37°C) for 1 hour. For pH experiments, growth medium was replaced with media adjusted to pH of 2, 4, 5, 6, 7, 8 and 9 (without additional FAC) and radiolabeled hepcidin was added for 1 h at 37°C. Cells were washed with phosphate-buffered saline (PBS) to remove unbound radioactive hepcidin and centrifuged for 2 minutes at 12,000xg through a silicone oil layer (Nyosil M25; Nye). The radioactivity in cell pellets was determined by gamma counting. The temperature-dependence data are expressed in counts-per-minute (cpm), whereas pH-dependence data were normalized because of the variability in absolute cpm values between experiments and expressed as % of radioactivity at pH 7. The radioactivity of uninduced cells subtracted as background for each point.

[4] = cited from earlier work
From the text: This study was the first to examine the fate of hepcidin from its initial binding to ferroportin to its cellular catabolism. We show here that hepcidin is internalized together with ferroportin and that both are degraded in lysosomes. Because of the small size of hepcidin (∼2.7 kD) and its weak binding to plasma proteins, glomerular filtration and proteolysis in proximal tubules is thought to be the major mechanism for hepcidin clearance from blood. Detectable concentrations of hepcidin in urine, indicative of peptide that escaped proteolysis in the proximal tubules, are consiste ...

Fpn-GFP expressing cells = target: T3, Fpn-GFP expressing cells (Mus musculus, UniProt Q9JHI9); experiment: Confocal microscopy co-localization of TR-Hep with Fpn-GFP; assay type: cell-based
T3 construct: expressed in transfected cells; host or cells: ECR293 (ECR-Fpn) cells, ponasterone-inducible
T3 sequence (Q9JHI9 1-570): T1 sequence (Q9JHI9 1-570)
Experimental: ECR-Fpn cells were plated in a 12-well plate on 12 mm poly-D-lysine coated round coverslips (Becton Dickinson, Franklin Lakes, NJ) in the presence of 20 µM ferric ammonium citrate (FAC) with or without 10 µM ponasterone. FAC is added to the medium to prevent cellular iron depletion caused by prolonged Fpn-GFP overexpression. After 24 h, ponasterone was washed off, and cells were treated with 1 µg/ml TR-Hep at 37°C protected from light. After 1 hour, cells were washed with PBS two times and the coverslip was placed on a slide, sealed with clear nail polish and immediately analyzed. Images were scanned at the UCLA CNSI Advanced Light Microscopy Facility and the BRI Cell Imaging Facility on a Leica TCS-SP MP Confocal and Multiphoton Inverted Microscope (Heidelberg, Germany) equipped with an argon laser (488 nm blue excitation: JDS Uniphase), a 561 nm (green) diode laser (DPSS: Melles Griot), and a two photon laser setup consisting of a Spectra-Physics Millenia×532 nm green diode pump laser and a Tsunami Ti-Sapphire picosecond pulsed infrared laser tuned at 768 nm for UV excitation. Images were acquired using LCS Lite software (Leica Confocal Software, Leica Microsystems, Manheim, Germany).

ferroportin = conditions: naturally occurring urinary forms; cited from earlier work

Molecule: CO/C1=C\C(C)=C\[C@@H](C)[C@@H](O)[C@@H](C)C/C(C)=C/C=C/[C@H](OC)[C@@H]([C@@H](C)[C@@H](O)[C@H](C)[C@@]2(O)C[C@@H](O)[C@H](C)[C@@H](C(C)C)O2)OC1=O [bafilomycin, reference compound]
effect of lysosomal inhibitor on degradation of both hepcidin and ferroportin [1]: completely prevented the degradation | effect of bafilomycin on cellular radioactivity ([2]; 100 nM bafilomycin for 24 h after 125I-hepcidin loading, gamma counting of cell pellets): increased the retention of radioactivity in cells

Molecule: CCN(CC)CCCC(C)Nc1ccnc2cc(Cl)ccc12 (stereo not drawn) [chloroquine]
effect of lysosomal inhibitor on degradation of both hepcidin and ferroportin [1]: completely prevented the degradation

Molecule: hepcidin-20: degradation product of hepcidin-25 detected in urine, truncated at the N-terminus by 5 amino acids (ICIFCCGCCHRSKCGMCCKT; disulfide (positions not given here); ends not checked; also: disulfide bridges, pairing not given here; UniProt P81172 65-84, looked up)
activity relative to hepcidin-25 (ferroportin): much less active than hepcidin-25

Second part, led by results:

specific binding at pH lower than 6 ([3]; pH 2, 4, 5, 1 h at 37°C, uninduced-cell background subtracted): did not bind specifically | binding to ferroportin at pH 9 ([3]; pH 9 among pH 2, 4, 5, 6, 7, 8 and 9, 1 h at 37°C, normalized to pH 7): highest binding
Molecule: Hepcidin: 25-amino acid peptide hormone, principal regulator of plasma iron concentrations; synthetic hepcidin from Peptides International
binding to plasma proteins [4]: weak binding

co-localization of red hepcidin with green ferroportin in vesicles (Fpn-GFP expressing cells; 1 µg/ml TR-Hep, 1 h, 37°C, induced cells, confocal microscopy): nearly complete co-localization | red fluorescence in uninduced cells (Fpn-GFP expressing cells; uninduced cells treated with TR hepcidin, data not shown): no detectable red fluorescence | degradation of Fpn-GFP after TR-Hep ([1]; 24 h after addition of 1 µg/ml TR-Hep, green fluorescence by flow cytometry): nearly completely degraded
Molecule: TR-Hep: synthetic hepcidin labeled with Texas Red-X succinimidyl ester

binding of 125I-hepcidin to Fpn-GFP expressing cells at temperatures below 37°C ([3]; 1 h at 0, 15, 23 and 37°C, cell-bound radioactivity by gamma counting (cpm), at least three experiments): decreased
Molecule: ^125I-hepcidin: synthetic hepcidin with M21Y substitution iodinated with 125I (DTHFPICIFCCGCCHRSKCGYCCKT; disulfide (positions not given here); not fully specified (bridges); ends not checked; also: iodinated with 125I, site not given here; UniProt P81172 60-84, looked up, variant M21Y)
radioactivity in cell pellets after loading [2]: almost complete loss of radioactivity
